Test results taken from the nanobody polyreactivity screen of Harvey et al. (2022).

experiment: yeast display, Sf9 membrane polyspecificity reagent, FACS + sequencing; frameworks hold sequencing errors
How it was run: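 Using colony PCR, genes from sorted yeast display clones were amplified, then sequenced on MiSeq at 2 × 250 and filtered by CDR length. The clones had been stained with 10% biotinylated, detergent-solubilized Sf9 membrane reagent for 1 hour at 4 °C and sorted by FACS into low and high (top ~1%) gates on anti-HA and streptavidin fluorescence. Polyreactivity labels come from the gate of origin.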

Sequence	polyreactivity (PSR sort gate)
QVKLVESGGGLVQAGGSLRLSCAASGITFGYNAMGWDRQAPGKERELVAAITGGSTYYADSVKGRFTISRDNAKNTFYLQMNSLKPEDSAVYYCATDPRRFWVIYYYWGQGTQVTVSS	low polyreactivity
QVKLVESGGGLVQAGGSLRLSCAASGLIFGYNTMGWYRQAPGKERELVAAITRSGGSTYYADSVKGRFTISRDNAKNTVYLQMNSLKPEDTAVYYCAARHRSAYYHLDYWGQGTQVTVSS	high polyreactivity
QVKLVESGGGLVQAGGSLRLSCAASGRIFGYYDMGLYRQAPGKDRELVAAISWNGGSTSYADSVKGRFTISRDNAKNTVYLQMNSLKPEDTAVYYCAAETQYDGYVGSFYYWGQGTQVTVSS	low polyreactivity
QVKLVESGGGLVQAGGSLRLSCAASGRIFYYNAMGWYRQAPGKERELVSAIRVRGGSTYYADSVKGRFTISRDNAKNTVYLQMNSLNPEDTAVYYCNSSDYKISATNAVVRYYYWGQGTQVTVSS	high polyreactivity
QVKLVESGGGLVQAGGSLRLSCAASGRTFASNAMGWYRQAPGKERELVADISSSGGTTYYADSVKGRFTISRDNAKNTVYLQMNSLKPEDTAVYYCAAVSSQDDPVKAWDYEYWGQGTQVTVSS	low polyreactivity
QVKLVESGGGLVQAGGSLRLSCAASGRTFLRYTMGWYRQAPGKEREFVAAISYDTSSTNYADSVKGRFTISRDNAKNNLYLQMNSLKPEDTAVYYCATGPYYGYDEFDYWGQGTQVTVSS	low polyreactivity
QVKLVESGGGLVQAGGSLRLSCAASGRTFYRNTMGWYRQAPGKERELVAAITRSGGSTYYADSVKGRFTISRDNAKNTVYLQMNRLKPEDTAVYYCARPKIHGETRSYGYGYWGQGTQVTVSS	high polyreactivity
QVKLVESGGGLVQAGGSLRLSCAASGSIFRYYAMGWYRQAPGKERELVAAMTASGGRTHYADSVKGRFTISRDNAKNTVYLQMNSLKLEDTAVYYCAADLYYAWYWKQHYDYCGQGTQVTVSS	high polyreactivity
QVKLVESGGGLVQAGGSLRLSCAASGSIFTYYAMGWYRQAPGKERELVADIRWSGGSTYYADSVKGRFTISRDNAKNTVYLQMNSLKPEDTAVYYCNARYYSYWPIYNFDYWGQGTQVTVSS	low polyreactivity
QVKLVESGGGLVQAGGSLRLSCAASGSIFYYYAMGWYREAPGKERELVAAISYGGGSTYYADSVKGRFTISRDNAKNTVYLQMNSLKPEDTAVYYCAVQEVVGWYLYDYWGHGTQVTVSS	high polyreactivity
QVKLVESGGGLVQAGGSLRLSCAASGSIISGYAMGWYRQAPGKERELVAAISSSGGRTYYADSVKGRFTISRDNAKNTVYLQMYSLKPEDTAVYYCATVWSIVRGSYYNRYDYWGQGTQVTVSS	high polyreactivity
QVKLVESGGGLVQAGGSLRLSCAASGSTFSPYVKAWYRQAPGKERELVAAIRYRGGSTYYADSVKGRFTISRDNAKNTVYLQMNSLKPEDTAVYYCATKRSHYSGGYWGQGTQVTVSS	high polyreactivity
QVKLVESGGGLVQAGGSLRLSCAAYGFIISYYAMGWYRQQPGKEREFVAVISRGGNTYYADSVKGRFTISRDNAKNTVYLQMNSLKPVDTAVYYCAASVPPYYPRQRHDGYDYWVQGTQVTVSS	low polyreactivity
QVKLVESGGGLVQAGGSLRLSCAAYGLIMGRYAMGWYRQEPGKERELVAAISGSGGSTYYADSVKGRFTISRDNAKNTVYLQMNSLKPEDTAVYYCAADRLRYRDMYYWGQGTQVTVSS	low polyreactivity
QVKLVESGGGLVQAGGSLRLSCGASGSTFGAYAMGWYRQAPGKERELVAVINSDGSTNYADSVKGRFTISRDNAKNTVYLQMNSMKPEDTAVYYCAKERTSRGGVPRMNYWGQGTQVTVSS	low polyreactivity
QVKLVESGGGLVQAGGSLRLSCSASGFTFRFYAMGWYIQAPGKERELVASITRSGGSTYYADSVKGRFTISRDNAKNTVYLQMNSLKPEDTAVYYCAAYRCYVSYKEMYYLGQGTQVTVSS	high polyreactivity
QVKLVESGGGLVQAGGSLRLSFAAYGSIFAWYGMGWYRQAPGKERELVAAISTAGSTNYADSVKGRFTISRDNAKNTVYLQMNSLKPEDTAVYYCAKKSSWYYQERFDYWGQGTQVTASS	low polyreactivity
QVKLVESGGGLVQAGGSLRLSFDASGSTFYFYAMGLYRQDPGKETEFFAAITQSGGSTNYADSVKGRFTISRDKAKNTVYLQMNSLKPEDTAVYYCSAREWRSFDYWGQGTQVTVSS	low polyreactivity
QVKLVESGGGLVQAGGSLRLSSAASGSTFEYNAMGWYRQAPGKERELVASSTNYADSVKGRFTISRDNAKNTVYLQMTSRKPEDTAVYYCAREQGVNRNHDYWGQGTQVTVSS	low polyreactivity
QVKLVESGGGLVQAGGSLSLSCDASGFISVQNALGCYRQAPGKERELVASITSDGSTYYADSVKGRFTISRDNAKNTVYLQMTSLKPEDTAVYDCAKVNNSYSGFTTTLEYWGQGTQVTVSS	low polyreactivity
QVKLVESGGGLVQEGGSLRLSCAASGRICGNYSMGWYRQAPGKERELVAAIDLSGDSTYYADSVKGRFTISRDNAKNTVYLQMNSLKPEDTAVYYCAATDWFSEYYWGQGTQVTVSS	low polyreactivity
QVKLVESGRGLVQAGGSLRLSCAASGITFISNAMAVYRQAPGKERELVAAISYRGGSTYYADSVKGRFTISRDNAKNTVYLQMNSLKPEDTAVYDCAARFHYPGGPRYYYWGQGTQVTVSS	high polyreactivity

Sequence	polyreactivity (PSR sort gate)
QVKLVESGVGLVQAGGSLRLSCGASGFIFVRYAIVWSRQAPGKERDLVAAISGSGGRTYYAYSVKGRFTISRDNAKNTVYLKMNSLKPEDTSVYYCNVKSYTYGYLPYDYWGQGTQVTVSS	high polyreactivity
QVKLVESVGGLVQAGGRLRLSCAASGSILYFNAMGWYRQAPGKERELVAAISKSGGRTYYADSVKGRFTISRDNAKNTVYLQMNCLKPEDTAVYYCAKDNYWGQGTQVTVSS	high polyreactivity
QVKLVESWRGLVPAGVSLRLSCAASVNILDYYAMGWYRQAPGNERELVASITSGGGTYYADSVKGRFTISRDNAKNTVYLQMNSLKPEDTAVYYCNAGPKRTYSPPWRVRYYDWGQGTQVTVSS	high polyreactivity
QVKLVVSGGGLVQAGGSLRLTCAASGRTFRRNAMGWYRQAPGKERELVAAISTSGGRTYYADSVKGRFTISRDNAKNTVYLQMNSLKAEDTAVYYCAADIPQTEGYWGQGTQVTVSS	low polyreactivity
QVKQQESGGGLVKAGGSLRLSCAASGNISNHNDMGRYRQAPGKEREFVAGITAGGITNYADRVKGRCTISRDNAKNTVYLQMNCLKPEETAVYYCAAYADYAKSYGYWGQGTQATVSS	low polyreactivity
QVKRVESGGGLVQAGGSLRFSCADSGFTFGTYAMGWYRQAPGKEREFVAAISSNGGNTYYADSVKGRFTISRDNAKNTVYLEIHSLKPEDTAVSYCADRYPSGTRKWYCYWGQGTQVTVSS	high polyreactivity
QVLLEDSGGGLVQAGARLRLICAASGRIHVNAMGWYRQAPGKERELVASINIGDGTHYADSVKGRFTISRANAKNTVYLQLNSLISEVTAVYYCAADSRSSNACYDYWGQGTQVSVSS	low polyreactivity
QVLLQESGGGLVQAGGSLRLCCAASGYISGDQFMGWYRQAPGKEREFVAGIGNGTNTNYADSVKGRFTTSRDNAKNTVYLQMNSLKPEDTAVYYCAADPSDGSTLAYWGQGTQVTVSS	high polyreactivity
QVLLQESGGGLVQAGGSLRLGCAASGTISPAYYMGRYHQAPGKEREFVAAITYGTNTYYADSEKGRFTISRDNAKNTVYLQMNSLKPEDTAVYYCSATAGYNGAHDYWGQVTQVTVSS	low polyreactivity
QVLLQESGGGLVQAGGSLRLGCAASGTISPAYYMGRYHQAPGKEREFVAAITYGTNTYYADSVKGRFTISRDNAKNSVYLQMNSLKPEDTAVYYCSATAGYNGAHDYWGQGTQVTVSS	low polyreactivity
QVLLQESGGGLVQAGGSLRLSCAASGSIFLIYTMGWYRHAPVKEREFVAGITLGTTTYNADSVKGRFTISRDNVKNTVYLKMNILKPEDTEVYYCAVAVGHYTEFWYWGQGTQVTMSS	high polyreactivity
QVLLQESGGGLVQAGGSLRMSCAASGNIFSAGGMGWYRQAPVNERELVAGIGTGTSTNYADSVKGRFTISRDNAKNTVYLQMNSLKPEDTAVYYCAAAYYSGLSHWYWGQGTQVTVSS	low polyreactivity
QVLLQESGGLVQAGCSLRMSCAASGSISTALSMGWYRQAPGKERELVATISDGASTNYADSVKGRFTISRVNAKNTVYLQMNSLKPEDSEVYYCAAQSQYRPDHRYWGQGTQVTVSS	high polyreactivity
QVLLVESGGCLVQAGGSVRLSCAASGSTFAPYVMGWYTQAPGKERELVADISTSGSTYYADSVKGRFTISRDNAKNTVYLQMNSMKPEDTAVYYCAAEDQRWFWTYDCWGQGTQVTVSS	high polyreactivity
QVLLVESGGGIVQAGGSLRLSCAASGSIIEPNAMGWYRQEPGQEREFVAAISGSGGSTYYADSVKGRFTSSRDNAKNTVYLQRNSLKPEYSAVYYCNALYLRTTPQDYDYWGQGTQVTVSS	high polyreactivity
QVLLVESGGGLDHAGGSLPLSCAASGFTFGDNAMGWYRQAPGKERELVAAITSTGGSTNYADSVKGRFTISRDNAKYTVYLQMNSLKPDDTAVYYCAAEWLYRHDGGYPRPMDYWGQGTQVTVSS	low polyreactivity
QVLLVESGGGLLQAGGSLRLSCAASGFTFLGYVMGWYRQAPGKEREFVADITESGGRTYYADSVKGRFTISRDNAKNTVYLQMNSLKPEDTAVYYCSGEVIFEQLNRMDYWGQGTQVTVSS	low polyreactivity
QVLLVESGGGLVQAGGSIRLSCDASGLTFYQNSMGWYRQAPGKERELVAAISSTRITNYADSVKVRFTLSRDNAKTPVYLQMNSLIPEDTAVYYCNADYHPFFFEFIYWGQGTQGTVSS	high polyreactivity
QVLLVESGGGLVQAGGSLRLICAASGLIFFYYDMGWYRQAPGKERELVAAISQRGGSTYYADSLKGRFTISRDNEKNTVYLQMNSLKPEETAVYYCNVRSPASYRRYYWGQGTQVTVSS	high polyreactivity
QVLLVESGGGLVQAGGSLRLSCAASGGTFGAYDMGWYRQAPGKERELVATITSGGRTNYADSVTGRFTISRDNAKNTVYLQMNSLKPVDTAVYYCNARYYGYDAPYHTYEYYYWGQGTQVTVSS	low polyreactivity
QVLLVESGGGLVQAGGSLRLSCAASGRTFVYYTMGWDRQAPGKERELVAAINWRGTSTYYADSVKGRFTISRDNAKNTVYLQMNSLKPEDTAVYYCYAERNAGFDYWGQGTQVTVSS	high polyreactivity
